# From patent US20240182536A1 (MURAL ONCOLOGY, published 2024)
# Residue numbers refer to the chain shown, from its start. Names and notes keep the numbering of the source.
# T1: interleukin 18 binding protein (IL-18BP) (UniProt O95998 31-194)
# T1 sequence (looked up): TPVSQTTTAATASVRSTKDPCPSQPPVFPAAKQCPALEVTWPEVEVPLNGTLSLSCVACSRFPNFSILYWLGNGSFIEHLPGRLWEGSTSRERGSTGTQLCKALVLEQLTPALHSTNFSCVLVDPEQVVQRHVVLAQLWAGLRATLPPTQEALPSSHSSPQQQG
# T2: IL-18 receptors on HEK-Blue IL-18 reporter cells (UniProt Q13478 19-541; O95256 20-599, limits assumed)
# T2 sequence (looked up) 1: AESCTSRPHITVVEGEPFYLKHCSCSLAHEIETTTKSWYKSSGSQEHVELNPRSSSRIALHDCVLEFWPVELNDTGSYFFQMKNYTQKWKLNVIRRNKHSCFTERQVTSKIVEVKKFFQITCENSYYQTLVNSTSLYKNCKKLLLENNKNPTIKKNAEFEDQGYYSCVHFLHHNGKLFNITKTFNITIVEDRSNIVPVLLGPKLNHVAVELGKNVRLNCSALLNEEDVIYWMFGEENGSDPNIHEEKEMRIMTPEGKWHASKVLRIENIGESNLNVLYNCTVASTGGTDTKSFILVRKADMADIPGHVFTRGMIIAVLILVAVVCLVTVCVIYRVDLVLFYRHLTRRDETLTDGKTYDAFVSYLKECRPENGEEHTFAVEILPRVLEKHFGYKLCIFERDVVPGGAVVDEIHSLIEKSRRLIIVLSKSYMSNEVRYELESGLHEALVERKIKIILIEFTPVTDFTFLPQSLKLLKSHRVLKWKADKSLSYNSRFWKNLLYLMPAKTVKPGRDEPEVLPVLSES
# T2 sequence (looked up) 2: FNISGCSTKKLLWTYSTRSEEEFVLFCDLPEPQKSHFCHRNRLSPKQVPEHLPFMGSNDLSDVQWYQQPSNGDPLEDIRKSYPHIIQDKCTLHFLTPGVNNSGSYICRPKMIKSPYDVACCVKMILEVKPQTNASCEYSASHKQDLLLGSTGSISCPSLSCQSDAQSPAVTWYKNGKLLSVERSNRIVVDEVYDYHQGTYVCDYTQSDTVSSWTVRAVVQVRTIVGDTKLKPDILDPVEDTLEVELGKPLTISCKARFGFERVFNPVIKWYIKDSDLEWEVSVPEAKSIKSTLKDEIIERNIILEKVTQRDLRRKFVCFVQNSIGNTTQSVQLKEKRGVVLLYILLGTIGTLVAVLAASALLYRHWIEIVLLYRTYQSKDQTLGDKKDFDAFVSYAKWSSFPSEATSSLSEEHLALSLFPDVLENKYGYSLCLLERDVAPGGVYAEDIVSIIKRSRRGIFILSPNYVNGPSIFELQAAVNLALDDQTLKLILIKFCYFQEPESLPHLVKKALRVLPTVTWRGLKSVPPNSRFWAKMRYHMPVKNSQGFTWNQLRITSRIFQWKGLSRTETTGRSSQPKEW
# T3: IL-18 receptors on HEK-Blue IL-18 reporter cells (UniProt Q13478 19-541; O95256 20-599, limits assumed)
# T3 sequence (looked up) 1: T2 sequence (looked up) 1
# T3 sequence (looked up) 2: T2 sequence (looked up) 2
# T4: IL-18 binding protein (IL-18BP) (UniProt O95998 31-194)
# T4 sequence (looked up): T1 sequence (looked up)
# B1: IL-18 variant T34M, S36T, D37E, D40T, N41M, K53T, S55W (ligand)
# chain: YFGKLESKLSVIRNLNDQVLFIDQGNRPLFEDMMDTEMRTMAPRTIFIISMYTDWQPRGMAVTISVKSEKISTLSSENKIISFKEMNPPDNIKDTKSDIIFFQRSVPGHDNKMQFESSSYEGYFLASEKERDLFKLILKKEDELGDRSIMFTVQNED
# B2: IL-18 variant T34L, S36V, D40A, N41S, K53G, S55W (ligand)
# chain: B1 chain with M34L, T36V, E37D, T40A, M41S, T53G
# B3: IL-18 variant D23G, K53Y, S55Y (ligand)
# chain: B1 chain with D23G, M34T, T36S, E37D, T40D, M41N, T53Y, W55Y
# B4: IL-18 variant K53Y, S55G, Q56H (ligand)
# chain: B1 chain with M34T, T36S, E37D, T40D, M41N, T53Y, W55G, Q56H
# B5: IL-18 variant K53D, S55Q, H109Y (ligand)
# chain: B1 chain with M34T, T36S, E37D, T40D, M41N, T53D, W55Q, H109Y
# B6: IL-18 variant G3S, E6H, K53Y, D54P, S55Y, T63S, N91A, R104S (ligand)
# chain: YFSKLHSKLSVIRNLNDQVLFIDQGNRPLFEDMTDSDMRDNAPRTIFIISMYYPYQPRGMAVSISVKSEKISTLSSENKIISFKEMNPPDAIKDTKSDIIFFQSSVPGHDNKMQFESSSYEGYFLASEKERDLFKLILKKEDELGDRSIMFTVQNED
# B7: IL-18 variant G3P, E6I, K53N, D54W, S55P, T63S, N91L, R104Q (ligand)
# chain: B6 chain with S3P, H6I, Y53N, P54W, Y55P, A91L, S104Q
# B8: IL-18 variant G3L, E6Q, T63S, N91L, R104P (ligand)
# chain: B6 chain with S3L, H6Q, Y53K, P54D, Y55S, A91L, S104P
# B9: IL-18 variant G3P, E6S, K53N, D54Y, S55P, T63I, N91K, R104H (ligand)
# chain: B6 chain with S3P, H6S, Y53N, P54Y, Y55P, S63I, A91K, S104H
# B10: IL-18 variant G3L, E6Q, T63H, N91M, R104H (ligand)
# chain: B6 chain with S3L, H6Q, Y53K, P54D, Y55S, S63H, A91M, S104H
# B11: IL-18 variant G3Q, E6H, S7Y, D23A, R27S, D54S, S55R, T63F, N91F, R104Q (ligand)
# chain: B6 chain with S3Q, S7Y, D23A, R27S, Y53K, P54S, Y55R, S63F, A91F, S104Q
# Target: T1, interleukin 18 binding protein (IL-18BP)
# Assay: cell-based or functional assay
Binder,"HEK-Blue activity, +100 nM BP, DF-10000","HEK-Blue activity, +100 nM BP, DF-100,000","HEK-Blue activity, +100 nM BP, DF-1,000,000","Ratio (-BP/+BP), DF-10000","Ratio (-BP/+BP), DF-100,000","Ratio (-BP/+BP), DF-1,000,000"
B1,0.14,0.12,0.12,2.13,1.79,1.63
B2,0.12,0.12,0.14,1.81,1.6,0.97
B3,0.11,0.1,0.1,2.29,1.09,1.13
B4,0.3,0.21,0.18,0.86,0.7,0.63
B5,0.12,0.15,0.1,1.94,1.36,1.27

# Target: T2, IL-18 receptors on HEK-Blue IL-18 …
# Assay: cell-based or functional assay
Binder,"HEK-Blue activity, No BP, DF-10000","HEK-Blue activity, No BP, DF-100,000","HEK-Blue activity, No BP, DF-1,000,000"
B1,0.29,0.21,0.19
B2,0.22,0.19,0.14
B3,0.25,0.1,0.11
B4,0.26,0.15,0.11
B5,0.23,0.2,0.13

# Target: T3, IL-18 receptors on HEK-Blue IL-18 …
# Assay: cell-based or functional assay
Binder,"Activity, No BP, DF-100000","Activity, No BP, DF-500000","Activity, No BP, DF-2500000"
B6,0.09,0.09,0.07
B7,0.07,0.08,0.07
B8,0.15,0.09,0.1
B9,0.07,0.07,0.07
B10,0.16,0.09,0.11
B11,0.08,0.08,0.07

# Target: T4, IL-18 binding protein (IL-18BP)
# Assay: cell-based or functional assay
Binder,"Activity, +100 nM BP, DF-1000002","Activity, +100 nM BP, DF-5000003","Activity, +100 nM BP, DF-25000004","Ratio (-BP/+BP), DF-1000005","Ratio (-BP/+BP), DF-5000006","Ratio (-BP/+BP), DF-25000007"
B6,0.07,0.08,0.08,1.18,1.1,0.95
B7,0.08,0.09,0.07,0.91,0.91,0.97
B8,0.1,0.08,0.07,1.44,1.11,1.34
B9,0.07,0.07,0.07,1.03,0.94,0.95
B10,0.08,0.07,0.07,2.02,1.16,1.47
B11,0.07,0.08,0.07,1.12,1.01,1.04
